Values quoted from earlier work as cited in publication PMC9214263.

Molecular target: TNFα (Homo sapiens) (UniProt P01375)
Experiment: KinExA

Chain of TNFα (Homo sapiens) (P01375 77-233): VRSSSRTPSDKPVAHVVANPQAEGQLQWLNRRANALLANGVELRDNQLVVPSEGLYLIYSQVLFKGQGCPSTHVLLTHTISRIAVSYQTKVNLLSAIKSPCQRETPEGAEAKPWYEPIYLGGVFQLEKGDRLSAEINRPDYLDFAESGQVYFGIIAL

Kd: 4.2 pM
Substance: infliximab
